Source: US20230235004A1 (published 2023)
Positions count from the first letter of the chain named.

T1: human MAdCAM expressed on cells (human, UniProt Q13477 19-382)
T1 construct: whole, on cells
T1 sequence (looked up): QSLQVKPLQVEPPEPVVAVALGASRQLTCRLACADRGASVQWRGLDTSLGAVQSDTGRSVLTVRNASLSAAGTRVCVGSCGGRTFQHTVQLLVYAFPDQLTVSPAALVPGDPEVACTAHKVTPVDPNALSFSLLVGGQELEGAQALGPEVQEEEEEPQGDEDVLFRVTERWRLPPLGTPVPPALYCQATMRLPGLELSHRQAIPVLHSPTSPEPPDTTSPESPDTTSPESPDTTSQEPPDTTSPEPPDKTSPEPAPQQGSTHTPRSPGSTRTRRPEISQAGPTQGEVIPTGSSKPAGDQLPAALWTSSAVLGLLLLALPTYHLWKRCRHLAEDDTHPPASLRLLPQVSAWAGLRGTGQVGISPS

T2: mouse MAdCAM expressed on cells (mouse, UniProt Q61826 22-405)
T2 construct: whole, on cells
T2 sequence (looked up): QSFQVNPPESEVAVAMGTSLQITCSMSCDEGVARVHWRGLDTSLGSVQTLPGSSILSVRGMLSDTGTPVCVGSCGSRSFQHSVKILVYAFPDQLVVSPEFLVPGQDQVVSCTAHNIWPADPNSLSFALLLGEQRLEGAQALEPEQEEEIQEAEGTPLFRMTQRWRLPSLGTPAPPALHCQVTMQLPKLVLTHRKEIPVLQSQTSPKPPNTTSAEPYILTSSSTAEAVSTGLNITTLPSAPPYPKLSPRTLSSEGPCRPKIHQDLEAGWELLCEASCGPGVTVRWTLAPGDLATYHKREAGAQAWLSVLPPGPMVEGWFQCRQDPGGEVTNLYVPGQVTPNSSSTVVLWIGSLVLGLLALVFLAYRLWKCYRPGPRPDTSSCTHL

B1: MAdCAM Antibody Table 2 clone 62 (antibody, V domains shown)
VH: QVQLVQSGAEVKKPGASVKVSCKASGYTFTSYDINWVRQAPGQGLEWMGWINPNSGTTGYAQKFQGRVTMTRDTSTSTVYMELSSLRSEDTAVYYCARSPYYYYGMDVWGQGTTVTVSS
VL: DIQMTQSPSSLSASVGDRVTITCRASHFISRWVAWYQQKPGKAPKLLIYAASTLQSGVPSRFSGSGSGTDFTLTISSLQPEDFATYYCQQSYSGISFGPGTKVDIK
notes: IgG format
B2: MAdCAM Antibody Table 2 clone 69 (antibody, V domains shown)
VH: QVQLVQSGAEVKKPGASVKVSCKASGYTFTSYYMHWVRQAPGQGLEWMGIIDPSGGSTSYAQKFQGRVTMTRDTSTSTVYMELSSLRSEDTAVYYCAREEWSSGGVGYFDYWGQGTLVTVSS
VL: DIQMTQSPSSLSASVGDRVTITCRASQGISSYLAWYQQKPGKAPKLLIYATSSLQTGVPSRFSGSGSGTDFTLTISSLQPEDFATYYCQQTYSIPITFGQGTRLEIK
notes: IgG format
B3: MAdCAM Antibody Table 2 clone 71 (antibody, V domains shown)
VH: QVQLVQSGAEVKKPGASVKVSCKASGYTFTSYYMHWVRQAPGQGLEWMGIINPSGGSTSYAQKFQGRVTMTRDTSTSTVYMELSSLRSEDTAVYYCARDSVAGTGGRYYGMDVWGQGTLVTVSS
VL: B2 VL with S31N, L33F, T51A, T56G, T91S, I94L, I96Y, R103K
notes: IgG format
B4: MAdCAM Antibody Table 2 clone 70 (antibody, V domains shown)
VH: QVQLVQSGAEVKKPGASVKVSCKASGYPFTDYYMHWVRQAPGQGLEWMGWIKPNSGDTEYAQKFQGRVTMTRDTSTSTVYMELSSLRSEDTAVYYCARDRFVGKPDYYYYGMDVWGQGTMVTVSS
VL: B2 VL with G28S, S31V, Y32W, T51A, T56S, T91S, S93D, I94T, I96Y, R103K
notes: IgG format
B5: MAdCAM Antibody Table 2 clone 66 (antibody, V domains shown)
VH: QVQLVQSGAEVKKPGASVKVSCKASGYTFTGHYMHWVRQAPGQGLEWMGIINPSGGSTSYAQKFQGRVTMTRDTSTSTVYMELSSLRSEDTAVYYCARDGAWFGEEYYYGMDVWGQGTTVTVSS
VL: DIQMTQSPSSLSASVGDRVTITCRASQGISNWLAWYQQKPGKAPKLLIYDASNLETGVPSRFSGSGSGTDFTLTISSLQPEDFATYYCQQYYSFPLYTFGQGTKVEIK
notes: IgG format
B6: MAdCAM Antibody Table 2 clone 54 (antibody, V domains shown)
VH: QVQLVQSGAEVKKPGSSVKVSCKASGGTLSRYGVSWVRQAPGQGLEWMGGIIPIFGTTNYAQKFQGRVTITADESTSTAYMELSSLRSEDTAVYYCARDRVYYDSSGYPTWYFDLWGRGTLVTVSS
VL: EIVMTQSPATLSVSPGERATLSCRASQSVSSSYLAWYQQKPGQAPRLLIYGASTRATGIPARFSGSGSGTEFTLTISSLQSEDFAVYYCQQYGSSPITFGQGTKVEIK
notes: IgG format
B7: MAdCAM Antibody Table 2 clone 57 (antibody, V domains shown)
VH: EVQLLESGGGLVQPGGSLRLSCAASGFSVSSNYMSWVRQAPGKGLEWVAGISYDGSSKPYADSVKGRFTISRDNSKNTLYLQMNSLRAEDTAVYYCARSRGIAARPLQHWGQGTLVTVSS
VL: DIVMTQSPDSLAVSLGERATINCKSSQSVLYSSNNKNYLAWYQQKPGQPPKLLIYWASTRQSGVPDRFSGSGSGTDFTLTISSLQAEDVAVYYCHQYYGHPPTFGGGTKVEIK
notes: IgG format
B8: MAdCAM Antibody Table 2 clone 38 (antibody, V domains shown)
VH: QVQLVQSGAEVKKPGASVKVSCKASGYTFTDYFLHWVRQAPGQGLEWMGWMNPTSGNTGYAQKFQGRVTMTRDTSTSTVYMELSSLRSEDTAVYYCAREGEGSGFDYWGQGTLVTVSS
VL: DIQMTQSPSSLSASVGDRVTITCRASQGINSWLAWYQQKPGKAPKLLIYDASNLETGVPSRFSGSGSGTDFTLTISSLQPEDFATYYCQQSYSTPLTFGGGTKVEIK
notes: IgG format
B9: MAdCAM Antibody Table 2 clone 72 (antibody, V domains shown)
VH: QVQLVQSGAEVKKPGASVKVSCKASGYTFTSYYMHWVRQAPGQGLEWMGVINPIGGTTTYAQKFQGRVTMTRDTSTSTVYMELSSLRSEDTAVYYCASGAPSYYYYGMDVWGQGTLVTVSS
VL: B8 VL with G28S, N30S, W32Y, A34N, D50G, A51T, N53Y, E55A, G100Q
notes: IgG format
B10: MAdCAM Antibody Table 2 clone 42 (antibody, V domains shown)
VH: QVQLVQSGAEVKKPGASVKVSCKASGYTLTDYYMHWVRQAPGQGLEWMGIINPSGGSTSYAQKFQGRVTMTRDTSTSTVYMELSSLRSEDTAVYYCAREEYSSSSGYFDYWGQGTLVTVSS
VL: B8 VL with N30S, D50A, N53S, E55Q, T56S, G100Q
notes: IgG format
B11: MAdCAM Antibody Table 2 clone 56 (antibody, V domains shown)
VH: EVQLVESGGGLVKPGGSLRLSCAASGFTFSSYWMSWVRQAPGKGLEWVSAIGTGGGTYYAAPVKGRFTISRDDSKNTLYLQMNSLKTEDTAVYYCAREWLVPYYGMDVWGQGTTVTVSS
VL: B8 VL with G28S, N30S, S31R, D50G, E55Q, T56S, L96W, G100Q
notes: IgG format
B12: MAdCAM Antibody Table 2 clone 64 (antibody, V domains shown)
VH: EVQLLESGGGLVQPGGSLRLSCAASGFTFSNSDMNWVRQAPGKGLEWVAHIWNDGSQKYYADSVKGRFTISRDNSKNTLYLQMNSLRAEDTAVYYCARDRTDPGYSSAMDVWGQGTTVTVSS
VL: B8 VL with G28D, N30R, S31N, W32Y, A34G, N53S, S91A, Y92T, T94L
notes: IgG format
B13: MAdCAM Antibody Table 2 clone 39 (antibody, V domains shown)
VH: QVQLVQSGAEVKKPGASVKVSCKASGYTFTSYYMHWVRQAPGQGLEWMAWMNPNSGNTGYAQKFQGRVTMTRDTSTSTVYMELSSLRSEDTAVYYCARDYDFWSGSLGYWGQGTLVTVSS
VL: B2 VL with S31N, T51A, T56S, T91S, I94T, I96W, R103K, L104V
notes: IgG format
B14: MAdCAM Antibody Table 2 clone 67 (antibody, V domains shown)
VH: QVQLVQSGAEVKKPGASVKVSCKASGYTFTGYYMHWVRQAPGQGLEWMGMIYPRDGSTSYAQKFQGRVTMTRDTSTSTVYMELSSLRSEDTAVYYCAMTGWGYGMDVWGKGTTVTVSS
VL: B8 VL with S31N, W32Y, N53T, E55Q, T56S, T94A, L96P, G100Q, V104L
notes: IgG format
B15: MAdCAM Antibody Table 2 clone 53 (antibody, V domains shown)
VH: QVQLVQSGAEVKKPGASVKVSCKASGYTFTSYYMHWVRQAPGQGLEWMGWMNPNSGNTGYAQKFQGRVTMTRDTSTSTVYMELSSLRSEDTAVYYCAREGLGYCTNGVCWNYYGMDVWGQGTLVTVSS
VL: B8 VL with N30S, D50G, N53S, E55Q, T56S, L96Y, G100Q
notes: IgG format
B16: MAdCAM Antibody Table 2 clone 61 (antibody, V domains shown)
VH: QVQLVQSGAEVKKPGASVKVSCKASGDTFTGYYIHWVRQAPGQGLEWMGWINPNSGGTNYAQKFQGRVTMTRDTSTSTVYMELSSLRSEDTAVYYCARSGLWLGSYYGMDVWGQGTLVTVSS
VL: B8 VL with G28T, N30S, S31I, N53T, E55Q, T56S, S91Y, Y92S, T94Y, G100Q
notes: IgG format
B17: MAdCAM Antibody Table 2 clone 41 (antibody, V domains shown)
VH: QVQLVQSGAEVKKPGASVKVSCKASGYTFTSYYMHWVRQAPGQGLEWMGIINPSGGSTSYAQKFQGRVTMTRDTSTSTVYMELSSLRSEDTAVYYCARDTGYSYGRYYYYGMDVWGQGTLVTVSS
VL: B8 VL with G28S, N30G, S31R, E55Q, T56S, T94I, L96I, G100Q
notes: IgG format
B18: MAdCAM Antibody Table 2 clone 43 (antibody, V domains shown)
VH: QVQLVQSGAEVKKPGASVKVSCKASGYTFTSYGISWVRQAPGQGLEWMGWMHPKSGDTGLTQKFQGRVTMTRDTSTSTVYMELSSLRSEDTAVYYCARDTPYYYYGMDVWGQGTTVTVSS
VL: B2 VL with G28S, Y32W, T51A, T56S, T91S, I94V, R103K, L104V
notes: IgG format
B19: MAdCAM Antibody Table 2 clone 44 (antibody, V domains shown)
VH: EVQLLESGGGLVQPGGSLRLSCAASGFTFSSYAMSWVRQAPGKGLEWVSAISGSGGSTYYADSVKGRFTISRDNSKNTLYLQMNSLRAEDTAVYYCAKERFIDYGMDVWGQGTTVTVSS
VL: DIQMTQSPSSLSASVGDRVTITCQASQDISNYLNWYQQKPGKAPKLLIYAASSLQSGVPSRFSGSGSGTDFTLTISSLQPEDFATYYCQQTYSGWTFGPGTKVDIK
notes: IgG format
B20: MAdCAM Antibody Table 2 clone 68 (antibody, V domains shown)
VH: EVQLLESGGGLVQPGGSLRLSCAASGFTFGDYAMSWVRQAPGKGLEWVAVVSYDGTNKYYADSVKGRFTISRDNSKNTLYLQMNSLRAEDTAVYYCAKDICSSTSCYFDLWGRGTLVTVSS
VL: DIQMTQSPSSLSASVGDRVTITCRASQNINNYVNWYQQKPGKAPKLLIYDASNLETGVPSRFSGSGSGTDFTLTISSLQPEDFATYYCQQANSFPPTFGQGTRLEIK
notes: IgG format

What follows are binders tested against T1, human MAdCAM expressed on cells (assay: cell binding).

**Q.** Does B1 bind?
**A.** Result: binds

**Q.** Does B2 bind?
**A.** Result: binds

**Q.** Does B3 bind?
**A.** Result: binds

**Q.** Does B4 bind?
**A.** Result: binds

**Q.** Does B5 bind?
**A.** Result: binds

**Q.** Does B6 bind?
**A.** Result: binds

**Q.** Does B7 bind?
**A.** Result: binds

**Q.** Does B8 bind?
**A.** Result: binds

**Q.** Does B9 bind?
**A.** Result: binds

**Q.** Does B10 bind?
**A.** Result: binds

**Q.** Does B11 bind?
**A.** Result: binds

**Q.** Does B12 bind?
**A.** Result: binds

**Q.** Does B13 bind?
**A.** Result: binds

**Q.** Does B14 bind?
**A.** Result: binds

**Q.** Does B15 bind?
**A.** Result: binds

**Q.** Does B16 bind?
**A.** Result: binds

**Q.** Does B17 bind?
**A.** Result: binds

**Q.** Does B18 bind?
**A.** Result: binds

**Q.** Does B19 bind?
**A.** Result: binds

**Q.** Does B20 bind?
**A.** Result: binds

These binders were tested against T2, mouse MAdCAM expressed on cells (assay: cell binding).

**Q.** Does B1 bind?
**A.** Result: no binding

**Q.** Does B2 bind?
**A.** Result: no binding

**Q.** Does B3 bind?
**A.** Result: no binding

**Q.** Does B4 bind?
**A.** Result: no binding

**Q.** Does B5 bind?
**A.** Result: no binding

**Q.** Does B6 bind?
**A.** Result: no binding

**Q.** Does B7 bind?
**A.** Result: no binding

**Q.** Does B8 bind?
**A.** Result: no binding

**Q.** Does B9 bind?
**A.** Result: no binding

**Q.** Does B10 bind?
**A.** Result: no binding

**Q.** Does B11 bind?
**A.** Result: no binding

**Q.** Does B12 bind?
**A.** Result: no binding

**Q.** Does B13 bind?
**A.** Result: no binding

**Q.** Does B14 bind?
**A.** Result: no binding

**Q.** Does B15 bind?
**A.** Result: no binding

**Q.** Does B16 bind?
**A.** Result: no binding

**Q.** Does B17 bind?
**A.** Result: no binding

**Q.** Does B18 bind?
**A.** Result: no binding

**Q.** Does B19 bind?
**A.** Result: no binding

**Q.** Does B20 bind?
**A.** Result: no binding
